Test results: US20250179152A1 (TEXAS A AND M UNIVERSITY SYSTEM, published 2025)
“And” between values parts separate entries of the source, which are not always exact repeats. Equal values may be shown once.

B1: FSR22 (designed binder)
chain: MGSSHHHHHHSSGMEQKLISEEDLDGYIPEAPRDGQAYVRKDGEWVLLSTFLGGGGSLQGGGGSLQGSDLGKKLLEAARAGQDDEVRILMANGADVNACDPSGITPLHLAADKGHLEIVEVLLKYGADVNAMDVWGRTPLHLAAFTGHLEIVEVLLKYGADVNACDLNGYTPLHLAAGRGHLEIVEVLLKNGAGVNAQDKFGKTAFDISIDNGNEDLAEILQSSS
B2: SR22 (designed binder)
chain: MGSSHHHHHHSSGLVPRGSHMEQKLISEEDLGSDLGKKLLEAARAGQDDEVRILMANGADVNACDPSGITPLHLAADKGHLEIVEVLLKYGADVNAMDVWGRTPLHLAAFTGHLEIVEVLLKYGADVNACDLNGYTPLHLAAGRGHLEIVEVLLKNGAGVNAQDKFGKTAFDISIDNGNEDLAEILQSSS
B3: SR16m (designed binder)
chain: MGSSDLGKKLLEAARAGQDDEVRILMANGADVNALDLFGVTPLHLAAERGHLEIVEVLLKNGADVNAGDAFGRTPLHLAALGGHLEIVEVLLKNGADVNACDLYGVTPLHLAAGLGHLEIVEVLLKNGADVNAQDKFGKTAFDISIDNGNEDLAEILQSSSKLAAALEHHHHHH
B4: FSR16m (designed binder)
chain: MGMEQKLISEEDLDGYIPEAPRDGQAYVRKDGEWVLLSTFLGGGGSLQGGGGSLQGSDLGKKLLEAARAGQDDEVRILMANGADVNALDLFGVTPLHLAAERGHLEIVEVLLKNGADVNAGDAFGRTPLHLAALGGHLEIVEVLLKNGADVNACDLYGVTPLHLAAGLGHLEIVEVLLKNGADVNAQDKFGKTAFDISIDNGNEDLAEILQSSSKLAAALEHHHHHH

Experiments:
[1] = target: T1, human IgG1 Fc-tagged RBD, Wuhan-1 (SARS-CoV-2 (Wuhan-1); human, UniProt P0DTC2 319-541)
[2] = target: human IgG1 Fc-tagged RBD of Omicron (SARS-CoV-2 (Omicron); human)
[3] = target: Δ19 spike protein of strain B.1.351 on pseudotyped lentivirus (SARS-CoV-2 (B.1.351)); assay: cell-based or functional assay
[4] = target: Δ19 spike protein of B.1.617.2 on pseudotyped lentivirus (SARS-CoV-2 (B.1.617.2)); assay: cell-based or functional assay
[5] = target: Δ19 spike protein of C.37 on pseudotyped lentivirus (SARS-CoV-2 (C.37)); assay: cell-based or functional assay
[6] = target: spike protein of authentic SARS-CoV-2 B.1.351 (SARS-CoV-2 (B.1.351)); assay: cell-based or functional assay
[7] = target: spike protein of authentic SARS-CoV-2 B.1.617.2 (SARS-CoV-2 (B.1.617.2)); assay: cell-based or functional assay
[8] = target: spike protein of authentic SARS-CoV-2 B.1.617.2/AY1 (SARS-CoV-2 (B.1.617.2.AY1)); assay: cell-based or functional assay
[9] = target: spike protein of authentic SARS-CoV-2 B.1.1.519/BA.1 (SARS-CoV-2 (BA.1)); assay: cell-based or functional assay
[10] = target: spike protein of authentic SARS-CoV-2 B.1.1.519/BA.1.1 (SARS-CoV-2 (BA.1.1)); assay: cell-based or functional assay
[11] = target: spike protein of authentic SARS-CoV-2 B.1.1.519/BA.2 (SARS-CoV-2 (BA.2)); assay: cell-based or functional assay
[12] = target: T1, human IgG1 Fc-tagged RBD, Wuhan-1; assay: ELISA; DARPin coated, Fc-tagged RBD titrated
[13] = target: T2, human IgG1 Fc-tagged RBD, N439K (SARS-CoV-2; human, UniProt P0DTC2 319-541); assay: ELISA; DARPin coated, Fc-tagged RBD titrated
T2 construct: domain: RBD

[14] = target: T3, human IgG1 Fc-tagged RBD, L452R (SARS-CoV-2; human, UniProt P0DTC2 319-541); assay: ELISA; DARPin coated, Fc-tagged RBD titrated
T3 construct: domain: RBD

[15] = target: T4, human IgG1 Fc-tagged RBD, L452R + E484Q (SARS-CoV-2; human, UniProt P0DTC2 319-541); assay: ELISA; DARPin coated, Fc-tagged RBD titrated
T4 construct: domain: RBD

[16] = target: T5, human IgG1 Fc-tagged RBD, L452R + T478K (SARS-CoV-2; human, UniProt P0DTC2 319-541); assay: ELISA; DARPin coated, Fc-tagged RBD titrated
T5 construct: domain: RBD

[17] = target: T6, human IgG1 Fc-tagged RBD, S477N (SARS-CoV-2; human, UniProt P0DTC2 319-541); assay: ELISA; DARPin coated, Fc-tagged RBD titrated
T6 construct: domain: RBD

[18] = target: T7, human IgG1 Fc-tagged RBD, T478K (SARS-CoV-2; human, UniProt P0DTC2 319-541); assay: ELISA; DARPin coated, Fc-tagged RBD titrated
T7 construct: domain: RBD

[19] = target: T8, human IgG1 Fc-tagged RBD, E484Q (SARS-CoV-2; human, UniProt P0DTC2 319-541); assay: ELISA; DARPin coated, Fc-tagged RBD titrated
T8 construct: domain: RBD

[20] = target: T9, human IgG1 Fc-tagged RBD, F486S (SARS-CoV-2; human, UniProt P0DTC2 319-541); assay: ELISA; DARPin coated, Fc-tagged RBD titrated
T9 construct: domain: RBD

[21] = target: T10, human IgG1 Fc-tagged RBD, E484K (SARS-CoV-2; human, UniProt P0DTC2 319-541); assay: ELISA; DARPin coated, Fc-tagged RBD titrated
T10 construct: domain: RBD

[22] = target: T11, human IgG1 Fc-tagged RBD, F490S (SARS-CoV-2; human, UniProt P0DTC2 319-541); assay: ELISA; DARPin coated, Fc-tagged RBD titrated
T11 construct: domain: RBD

[23] = target: T12, human IgG1 Fc-tagged RBD, S494P (SARS-CoV-2; human, UniProt P0DTC2 319-541); assay: ELISA; DARPin coated, Fc-tagged RBD titrated
T12 construct: domain: RBD

[24] = target: T13, human IgG1 Fc-tagged RBD, K417E (SARS-CoV-2; human, UniProt P0DTC2 319-541); assay: ELISA; DARPin coated, Fc-tagged RBD titrated
T13 construct: domain: RBD

[25] = target: T14, human IgG1 Fc-tagged RBD, Y453F (SARS-CoV-2; human, UniProt P0DTC2 319-541); assay: ELISA; DARPin coated, Fc-tagged RBD titrated
T14 construct: domain: RBD

[26] = target: T15, human IgG1 Fc-tagged RBD, L455F (SARS-CoV-2; human, UniProt P0DTC2 319-541); assay: ELISA; DARPin coated, Fc-tagged RBD titrated
T15 construct: domain: RBD

[27] = target: T16, human IgG1 Fc-tagged RBD, G476S (SARS-CoV-2; human, UniProt P0DTC2 319-541); assay: ELISA; DARPin coated, Fc-tagged RBD titrated
T16 construct: domain: RBD

[28] = target: T17, human IgG1 Fc-tagged RBD, F486V (SARS-CoV-2; human, UniProt P0DTC2 319-541); assay: ELISA; DARPin coated, Fc-tagged RBD titrated
T17 construct: domain: RBD

[29] = target: T18, human IgG1 Fc-tagged RBD, K444Q (SARS-CoV-2; human, UniProt P0DTC2 319-541); assay: ELISA; DARPin coated, Fc-tagged RBD titrated
T18 construct: domain: RBD

[30] = target: T19, human IgG1 Fc-tagged RBD, V445A (SARS-CoV-2; human, UniProt P0DTC2 319-541); assay: ELISA; DARPin coated, Fc-tagged RBD titrated
T19 construct: domain: RBD

[31] = target: T20, human IgG1 Fc-tagged RBD, G446V (SARS-CoV-2; human, UniProt P0DTC2 319-541); assay: ELISA; DARPin coated, Fc-tagged RBD titrated
T20 construct: domain: RBD

Row | Binder | Kd [1] | Kd [2] | Neutralization IC50, pseudotyped lentivirus [3] | Neutralization IC50, pseudotyped lentivirus [4] | Neutralization IC50, pseudotyped lentivirus [5] | Neutralization IC50, authentic SARS-CoV-2 virus [6] | Neutralization IC50, authentic SARS-CoV-2 virus [7] | Neutralization IC50, authentic SARS-CoV-2 virus [8] | Neutralization IC50, authentic SARS-CoV-2 virus [9] | Neutralization IC50, authentic SARS-CoV-2 virus [10] | Neutralization IC50, authentic SARS-CoV-2 virus [11] | EC50 [12] | EC50 [13] | EC50 [14] | EC50 [15] | EC50 [16] | EC50 [17] | EC50 [18] | EC50 [19] | EC50 [20] | also measured
1 | B1 | 12.3 nM | 2.63 nM | 9.5 ng/ml and 135 pM | 13.3 ng/ml and 188 pM | 6.3 ng/ml and 89 pM | 57.2 ngml^-1 | 41.7 ngml^-1 | 44.2 ngml^-1 | 169 ngml^-1 | 41.2 ngml^-1 | 216 ngml^-1 | 1.96 nM | 2.63 nM | 1.87 nM | 4.05 nM | 7.83 nM | 1.57 nM | 15.2 nM | 4.05 nM | 70.5 nM | EC50 [21]: 4.57 nM; EC50 [22]: 1.57 nM; EC50 [23]: 0.61 nM; EC50 [24]: 300 nM; EC50 [25]: 3.97 nM; EC50 [26]: 9.24 nM; EC50 [27]: 27.2 nM; EC50 [28]: 105 nM; EC50 [29]: 5.92 nM; EC50 [30]: 3.43 nM; EC50 [31]: 30.6 nM
2 | B2 | – | – | 1100 nM | 69.8 nM | – | – | – | – | – | – | – | – | – | – | – | – | – | – | – | – | –
3 | B3 | – | – | 420 nM | 77.8 nM | – | – | – | – | – | – | – | – | – | – | – | – | – | – | – | – | –
4 | B4 | < 0.001 nM | 3.65 nM | 18 pM and 1.3 ng/ml | 66 pM and 4.8 ng/mL | 0.9 ng/ml and 13 pM | 3.4 ngml^-1 | 2.2 ngml^-1 | 3.3 ngml^-1 | 44.7 ngml^-1 | 7.4 ngml^-1 | 33.3 ngml^-1 | 0.59 nM | 0.75 nM | 0.37 nM | 0.21 nM | 0.13 nM | 0.63 nM | 0.19 nM | 0.34 nM | ≥ 300 nM | EC50 [21]: 0.21 nM; EC50 [22]: 0.15 nM; EC50 [23]: 0.26 nM; EC50 [24]: 300 nM; EC50 [25]: 0.74 nM; EC50 [26]: 0.1 nM; EC50 [27]: 5.73 nM; EC50 [28]: 300 nM; EC50 [29]: 1.03 nM; EC50 [30]: 0.46 nM; EC50 [31]: 7.65 nM
